In patent US20110294728, “Antiviral Polypeptides” (published 2011) one finds Kd data, which are given here for two molecules.

The term Kd denotes the concentration at which binding is half-saturated.

For data set [1], the target named is HIV-1 reverse transcriptase p66/p51 heterodimer (HIV-1 (BH10), UniProt P03366;P03366 P03366:600-1159,P03366:600-1039). In words: steady-state fluorescence quenching; 50 mM Tris-HCl pH 8.0, 50 mM KCl, 10 mM MgCl2, 1 mM DTT, 25 C. The conditions noted are these: tags: recombinant from E. coli; His-tagged and untagged preparations described, form used in the titration not specified; label: 6-FAM at primer 3' end; primer/template with 5' single-stranded template overhang.

The target of data set [2] is HIV-1 reverse transcriptase p66/p51 in complex with PAW peptide (HIV-1 (BH10), UniProt P03366;P03366 P03366:600-1159,P03366:600-1039). Kind of data set: steady-state fluorescence quenching; 10 uM PAW; 50 mM Tris-HCl pH 8.0, 50 mM KCl, 10 mM MgCl2, 25 C. The following applies: protein: synthetic; label: 6-FAM at primer 3' end; primer/template with 5' single-stranded template overhang.

Data set [3] concerns the target HIV-1 reverse transcriptase p66/p51 in complex with FITC-PAW (HIV-1 (BH10), UniProt P03366;P03366 P03366:600-1159,P03366:600-1039). Kind of data set: quenching of FITC-PAW pre-bound to RT on titration with unlabelled p/t; 10 mM MgCl2, 25 C. The following applies: tags: PAW with C-terminal Cys-FITC; primer/template with 5' single-stranded template overhang.

B1: 19/36-mer DNA/DNA primer/template (HIV-1 PBS) (dsDNA)
DNA 1: TCCCTGTTCGGGCGCCACT
DNA 2: TGTGGAAAATCTCATGCAGTGGCGCCCGAACAGGGA
As to B1, the Kd in data set [1] was 22 nM; in data set [2], 99 nM.

B2: 19/36-mer (printed 18/36) DNA/DNA primer/template, unlabelled (dsDNA)
DNA 1: TCCCTGTTCGGGCGCCACT
DNA 2: TGTGGAAAATCTCATGCAGTGGCGCCCGAACAGGGA
In turn, B2 returned a Kd in data set [3] of 66.5 nM.
